In PMC9652393, “Differential impact of ubiquitous and muscle dynamin 2 isoforms in muscle physiology and centronuclear myopathy” (Nature Communications, 2022):

B1: Human SH3 domain of BIN1 with Glutathione S-transferase (GST) tag (domain or fragment, UniProt O00499 520-593, looked up)
chain: GFMFKVQAQHDYTATDTDELQLKAGDVVLVIPFQNPEEQDEGWLMGVKESDWNQHKELEKCRGVFPENFTERVP
notes: amphiphysin 2 (BIN1), human, SH3 domain; The methods also describe cutting off the GST tag with PreScission on the beads; also called GST-SH3; GST-SH3 of BIN1
B2: Human ubiquitous dynamin 2 isoform (Ub-DNM2), recombinant (natural protein, UniProt P50570-2 1-866, looked up)
chain: MGNRGMEELIPLVNKLQDAFSSIGQSCHLDLPQIAVVGGQSAGKSSVLENFVGRDFLPRGSGIVTRRPLILQLIFSKTEHAEFLHCKSKKFTDFDEVRQEIEAETDRVTGTNKGISPVPINLRVYSPHVLNLTLIDLPGITKVPVGDQPPDIEYQIKDMILQFISRESSLILAVTPANMDLANSDALKLAKEVDPQGLRTIGVITKLDLMDEGTDARDVLENKLLPLRRGYIGVVNRSQKDIEGKKDIRAALAAERKFFLSHPAYRHMADRMGTPHLQKTLNQQLTNHIRESLPALRSKLQSQLLSLEKEVEEYKNFRPDDPTRKTKALLQMVQQFGVDFEKRIEGSGDQVDTLELSGGARINRIFHERFPFELVKMEFDEKDLRREISYAIKNIHGVRTGLFTPDLAFEAIVKKQVVKLKEPCLKCVDLVIQELINTVRQCTSKLSSYPRLREETERIVTTYIREREGRTKDQILLLIDIEQSYINTNHEDFIGFANAQQRSTQLNKKRAIPNQVIRRGWLTINNISLMKGGSKEYWFVLTAESLSWYKDEEEKEKKYMLPLDNLKIRDVEKGFMSNKHVFAIFNTEQRNVYKDLRQIELACDSQEDVDSWKASFLRAGVYPEKDQAENEDGAQENTFSMDPQLERQVETIRNLVDSYVAIINKSIRDLMPKTIMHLMINNTKAFIHHELLAYLYSSADQSSLMEESADQAQRRDDMLRMYHALKEALNIIGDISTSTVSTPVPPPVDDTWLQSASSHSPTPQRRPVSSIHPPGRPPAVRGPTPGPPLIPVPVGAAASFSAPPIPSRPGPQSVFANSDLFPAPPQIPSRPVRIPPGIPPGVPSRRPPAAPSRPTIIRPAEPSLLD
notes: dynamin 2 (DNM2), human, ubiquitous isoform; same variant of exon 10 as the M-DNM2 plasmid; No tag is stated for the pVL1392 constructs; also called WT Ub-DNM2

Key:
[1] = biological target: B2; assay: pull-down; GST-SH3 of BIN1 (0.16, 0.4 or 1.6 ml supernatant) bound to GSH-Sepharose overnight, washed with 300 mM NaCl, 50 mM Tris pH 8.0, 5 mM imidazole, 1 mM DTT; 0.07 mg purified M-DNM2 or Ub-DNM2 added for 20 min, washed; resin loaded on SDS-PAGE; conditions: both partners purified
[2] = biological target: the molecule itself; assay: SEC-MALS; Superose 6 10/300 GL; 20 mM HEPES pH 7.4, 1.5 M NaCl, 1 mM EGTA, 1 mM DTT, 5% glycerol; 4 °C, 0.5 ml/min

| Binder | binding result [1] | binding result [2] |
| --- | --- | --- |
| B1 | binds |  |
| B2 |  | binds |
